Measurements published in article PMC8515915 (Genome Medicine, 2021).

Target: T1, SARS-CoV-2 RBD wildtype, soluble fragment 319-591 with C-terminal 8 × His tag (SARS-CoV-2, UniProt P0DTC2)
T1 construct: source: ExpiCHO-S, transient, purified (His Trap Excel)
Assay: BLI
Conditions: both partners purified

B1: CB6 (antibody, V domains shown)
VH: EVQLVESGGGLVQPGGSLRLSCAASGFTVSSNYMSWVRQAPGKGLEWVSVIYSGGSTFYADSVKGRFTISRDNSMNTLFLQMNSLRAEDTAVYYCARVLPMYGDYLDYWGQGTLVTVSS
VL: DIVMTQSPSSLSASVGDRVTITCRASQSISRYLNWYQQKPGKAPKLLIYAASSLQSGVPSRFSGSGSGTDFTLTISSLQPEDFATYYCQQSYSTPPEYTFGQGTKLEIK
notes: source: ExpiCHO, heavy and light chain plasmids cotransfected, purified (Protein A)
Kd: 10.7 nM
